From article PMC5299843 come the findings set out here.

For test [1], the target named is recombinant LH/CG receptor (UniProt P22888).
The target is the same in test [2]. This is another data set of the same source.

Sequence of UniProt P22888 (P22888 27-699): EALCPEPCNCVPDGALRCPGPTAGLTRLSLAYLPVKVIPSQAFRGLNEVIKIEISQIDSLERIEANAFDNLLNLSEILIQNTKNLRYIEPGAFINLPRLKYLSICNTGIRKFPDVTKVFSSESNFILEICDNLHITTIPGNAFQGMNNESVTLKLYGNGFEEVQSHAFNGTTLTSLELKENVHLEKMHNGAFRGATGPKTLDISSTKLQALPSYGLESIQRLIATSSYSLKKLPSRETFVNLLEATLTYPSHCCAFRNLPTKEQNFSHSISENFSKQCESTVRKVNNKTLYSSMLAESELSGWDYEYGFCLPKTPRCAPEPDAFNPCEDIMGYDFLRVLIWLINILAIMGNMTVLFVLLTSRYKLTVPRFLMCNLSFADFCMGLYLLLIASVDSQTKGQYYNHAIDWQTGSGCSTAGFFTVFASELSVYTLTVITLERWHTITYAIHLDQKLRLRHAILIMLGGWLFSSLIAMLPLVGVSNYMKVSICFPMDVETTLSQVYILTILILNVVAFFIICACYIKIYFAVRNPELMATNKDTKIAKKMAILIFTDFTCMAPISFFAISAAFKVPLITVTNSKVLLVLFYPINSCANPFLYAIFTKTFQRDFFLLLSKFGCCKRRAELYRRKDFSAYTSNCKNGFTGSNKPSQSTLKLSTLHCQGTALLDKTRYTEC

On to “human recombinant chorionic gonadotropin (hCG, Ovitrelle) (from UniProt P01215 25-116; P0DN86 21-165) (ligand)”, for which, in test [1], the cAMP biosensor signal in COS7-LHCGR cells with 30 pM hCG after heat treatment of the hormone at 65 °C for 30 min; loss in active hormone concentration came out at 40%. In test [2], the change of FRET signal of the cAMP biosensor TEpacVV in living COS7-LHCGR cells, serial concentrations of hCG over time; concentration giving full receptor activation was 50 pM.
